B1: Tetratricopeptide repeat protein 4 (Homo sapiens), O95801 (parent)
chain: MEQPGQDPTSDDVMDSFLEKFQSQPYRGGFHEDQWEKEFEKVPLFMSRAPSEIDPRENPDLACLQSIIFDEERSPEEQAKTYKDEGNDYFKEKDYKKAVISYTEGLKKKCADPDLNAVLYTNRAAAQYYLGNFRSALNDVTAARKLKPCHLKAIIRGALCHLELKHFAEAVNWCDEGLQIDAKEKKLLEMRAKADKLKRIEQRDVRKANLKEKKERNQNEALLQAIKARNIRLSEAACEDEDSASEGLGELFLDGLSTENPHGARLSLDGQGRLSWPVLFLYPEYAQSDFISAFHEDSRFIDHLMVMFGETPSWDLEQKYCPDNLEVYFEDEDRAELYRVPAKSTLLQVLQHQRYFVKALTPAFLVCVGSSPFCKNFLRGRKVYQIR
partner: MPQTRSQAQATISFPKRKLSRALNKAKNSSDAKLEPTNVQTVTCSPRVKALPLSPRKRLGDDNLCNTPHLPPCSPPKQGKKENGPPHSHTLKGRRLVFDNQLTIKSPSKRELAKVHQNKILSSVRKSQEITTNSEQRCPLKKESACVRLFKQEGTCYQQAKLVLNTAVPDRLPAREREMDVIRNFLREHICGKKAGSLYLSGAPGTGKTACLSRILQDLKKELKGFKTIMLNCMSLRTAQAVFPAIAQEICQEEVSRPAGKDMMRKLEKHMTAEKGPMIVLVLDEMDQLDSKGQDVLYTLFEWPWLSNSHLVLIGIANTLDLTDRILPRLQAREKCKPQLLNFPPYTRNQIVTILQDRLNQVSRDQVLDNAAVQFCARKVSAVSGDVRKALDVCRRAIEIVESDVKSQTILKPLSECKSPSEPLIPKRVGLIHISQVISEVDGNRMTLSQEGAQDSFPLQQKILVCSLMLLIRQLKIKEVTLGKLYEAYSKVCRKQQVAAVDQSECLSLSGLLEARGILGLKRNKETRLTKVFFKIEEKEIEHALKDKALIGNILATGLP
B2: Tetratricopeptide repeat protein 4 (Homo sapiens), O95801 (parent)
chain: B1 chain

Variants of: B1
Conditions: with cdc6_human CDC6, Q99741

effect of a mutation on the interaction | Variant
with no effect | MEQPGQDPTSDDVMDSFLEKFQSQPYRGGFHEDQWEKEFEKVPLFMSRAPSEIDPRENPDLACLQSMIFDEERSPEEQAKTYKDEGNDYFKEKDYKKAVISYTEGLKKKCADPDLNAVLYTNRAAAQYYLGNFRSALNDVTAARKLKPCHLKAIIRGALCHLELKHFAEAVNWCDEGLQIDAKEKKLLEMRAKADKLKRIEQRDVRKANLKEKKERNQNEALLQAIKARNIRLSEAACEDEDSASEGLGELFLDGLSTENPHGARLSLDGQGRLSWPVLFLYPEYAQSDFISAFHEDSRFIDHLMVMFGETPSWDLEQKYCPDNLEVYFEDEDRAELYRVPAKSTLLQVLQHQRYFVKALTPAFLVCVGSSPFCKNFLRGRKVYQIR [I67M]
disrupting interaction strength | MEQPGQDPTSDDVMDSFLEKFQSQPYRGGFHEDQWEKEFEKVPLFMSRAPSEIDPRENPDLACLQSIIFDEERSPEEQAKTYKDEGNDYFKEKDYKKAVISYTEGLKKKCADPDLNAVLYTNRAAAQYYLGNFRSALNDVTAARKLKPCHLKAIIRGALCHLELKHFAEAVNWCDEGLQIDAKEKKLLEMRAKADKLKRIEQRDVRKANLKEKKERKQNEALLQAIKARNIRLSEAACEDEDSASEGLGELFLDGLSTENPHGARLSLDGQGRLSWPVLFLYPEYAQSDFISAFHEDSRFIDHLMVMFGETPSWDLEQKYCPDNLEVYFEDEDRAELYRVPAKSTLLQVLQHQRYFVKALTPAFLVCVGSSPFCKNFLRGRKVYQIR [N217K]
with no effect | MEQPGQDPTSDDVMDSFLEKFQSQPYRGGFHEDQWEKEFEKDPLFMSRAPSEIDPRENPDLACLQSIIFDEERSPEEQAKTYKDEGNDYFKEKDYKKAVISYTEGLKKKCADPDLNAVLYTNRAAAQYYLGNFRSALNDVTAARKLKPCHLKAIIRGALCHLELKHFAEAVNWCDEGLQIDAKEKKLLEMRAKADKLKRIEQRDVRKANLKEKKERNQNEALLQAIKARNIRLSEAACEDEDSASEGLGELFLDGLSTENPHGARLSLDGQGRLSWPVLFLYPEYAQSDFISAFHEDSRFIDHLMVMFGETPSWDLEQKYCPDNLEVYFEDEDRAELYRVPAKSTLLQVLQHQRYFVKALTPAFLVCVGSSPFCKNFLRGRKVYQIR [V42D]
disrupting interaction strength | MEQPGQDPTSDDVMDSFLEKFQSQPYRGGFHEDQWEKEFEKVPLFMSRAPSEIDPRENPDLACLQSIIFDEERSPEAQAKTYKDEGNDYFKEKDYKKAVISYTEGLKKKCADPDLNAVLYTNRAAAQYYLGNFRSALNDVTAARKLKPCHLKAIIRGALCHLELKHFAEAVNWCDEGLQIDAKEKKLLEMRAKADKLKRIEQRDVRKANLKEKKERNQNEALLQAIKARNIRLSEAACEDEDSASEGLGELFLDGLSTENPHGARLSLDGQGRLSWPVLFLYPEYAQSDFISAFHEDSRFIDHLMVMFGETPSWDLEQKYCPDNLEVYFEDEDRAELYRVPAKSTLLQVLQHQRYFVKALTPAFLVCVGSSPFCKNFLRGRKVYQIR [E77A]

Variants of: B2
Conditions: with hs90b_human HSP90AB1, P08238
Chain of hs90b_human HSP90AB1, P08238 (P08238 whole entry): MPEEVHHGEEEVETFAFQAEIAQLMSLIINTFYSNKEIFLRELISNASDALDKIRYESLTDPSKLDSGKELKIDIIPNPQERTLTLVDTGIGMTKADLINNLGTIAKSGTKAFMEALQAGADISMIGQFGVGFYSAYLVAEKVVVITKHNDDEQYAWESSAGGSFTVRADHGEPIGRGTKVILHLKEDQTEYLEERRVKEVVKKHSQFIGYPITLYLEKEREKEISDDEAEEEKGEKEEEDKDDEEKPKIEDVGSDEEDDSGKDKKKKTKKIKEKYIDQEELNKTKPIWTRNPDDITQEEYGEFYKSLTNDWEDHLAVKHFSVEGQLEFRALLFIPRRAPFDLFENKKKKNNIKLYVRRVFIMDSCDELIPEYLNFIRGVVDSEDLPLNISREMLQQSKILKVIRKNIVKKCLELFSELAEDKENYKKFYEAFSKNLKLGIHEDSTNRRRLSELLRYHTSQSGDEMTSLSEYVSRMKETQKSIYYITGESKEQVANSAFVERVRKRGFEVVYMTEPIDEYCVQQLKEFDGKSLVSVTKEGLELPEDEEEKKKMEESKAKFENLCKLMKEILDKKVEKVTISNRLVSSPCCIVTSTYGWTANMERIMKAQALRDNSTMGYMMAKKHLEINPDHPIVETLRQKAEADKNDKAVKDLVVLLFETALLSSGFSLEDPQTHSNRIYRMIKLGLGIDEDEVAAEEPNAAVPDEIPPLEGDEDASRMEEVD

effect of a mutation on the interaction | Variant
disrupting interaction strength | MEQPGQDPTSDDVMDSFLEKFQSQPYRGGFHEDQWEKEFEKVPLFMSRAPSEIDPRENPDLACLQSIIFDEERSPEEQAKTYKDEGNDYFKEKDYKKAVISYTEGLKKKCADPDLNAVLYTNRAAAQYYLGNFRSALNDVTAARKLKPCHLKAIIEGALCHLELKHFAEAVNWCDEGLQIDAKEKKLLEMRAKADKLKRIEQRDVRKANLKEKKERNQNEALLQAIKARNIRLSEAACEDEDSASEGLGELFLDGLSTENPHGARLSLDGQGRLSWPVLFLYPEYAQSDFISAFHEDSRFIDHLMVMFGETPSWDLEQKYCPDNLEVYFEDEDRAELYRVPAKSTLLQVLQHQRYFVKALTPAFLVCVGSSPFCKNFLRGRKVYQIR [R156E]
disrupting interaction strength | MEQPGQDPTSDDVMDSFLEKFQSQPYRGGFHEDQWEKEFEKVPLFMSRAPSEIDPRENPDLACLQSIIFDEERSPEEQAKTYKDEGNDYFKEKDYKKAVISYTEGLKKKCADPDLNAVLYTNRAAAQYYLGNFRSALNDVTAARKLKPCHLEAIIEGALCHLELKHFAEAVNWCDEGLQIDAKEKKLLEMRAKADKLKRIEQRDVRKANLKEKKERNQNEALLQAIKARNIRLSEAACEDEDSASEGLGELFLDGLSTENPHGARLSLDGQGRLSWPVLFLYPEYAQSDFISAFHEDSRFIDHLMVMFGETPSWDLEQKYCPDNLEVYFEDEDRAELYRVPAKSTLLQVLQHQRYFVKALTPAFLVCVGSSPFCKNFLRGRKVYQIR [K152E;R156E]
disrupting interaction strength | MEQPGQDPTSDDVMDSFLEKFQSQPYRGGFHEDQWEKEFEKVPLFMSRAPSEIDPRENPDLACLQSIIFDEERSPEEQAKTYKDEGNDYFKEKDYKKAVISYTEGLKKKCADPDLNAVLYTNRAAAQYYLGNFRSALNDVTAARKLKPCHLEAIIRGALCHLELKHFAEAVNWCDEGLQIDAKEKKLLEMRAKADKLKRIEQRDVRKANLKEKKERNQNEALLQAIKARNIRLSEAACEDEDSASEGLGELFLDGLSTENPHGARLSLDGQGRLSWPVLFLYPEYAQSDFISAFHEDSRFIDHLMVMFGETPSWDLEQKYCPDNLEVYFEDEDRAELYRVPAKSTLLQVLQHQRYFVKALTPAFLVCVGSSPFCKNFLRGRKVYQIR [K152E]

Variants of: B2
Conditions: with hs90b_human HSP90AB1, P08238
Remark: another data set of the same source

Variant | effect of a mutation on the interaction
MEQPGQDPTSDDVMDSFLEKFQSQPYRGGFHEDQWEKEFEKVPLFMSRAPSEIDPRENPDLACLQSMIFDEERSPEEQAKTYKDEGNDYFKEKDYKKAVISYTEGLKKKCADPDLNAVLYTNRAAAQYYLGNFRSALNDVTAARKLKPCHLKAIIRGALCHLELKHFAEAVNWCDEGLQIDAKEKKLLEMRAKADKLKRIEQRDVRKANLKEKKERNQNEALLQAIKARNIRLSEAACEDEDSASEGLGELFLDGLSTENPHGARLSLDGQGRLSWPVLFLYPEYAQSDFISAFHEDSRFIDHLMVMFGETPSWDLEQKYCPDNLEVYFEDEDRAELYRVPAKSTLLQVLQHQRYFVKALTPAFLVCVGSSPFCKNFLRGRKVYQIR [I67M] | with no effect
MEQPGQDPTSDDVMDSFLEKFQSQPYRGGFHEDQWEKEFEKDPLFMSRAPSEIDPRENPDLACLQSIIFDEERSPEEQAKTYKDEGNDYFKEKDYKKAVISYTEGLKKKCADPDLNAVLYTNRAAAQYYLGNFRSALNDVTAARKLKPCHLKAIIRGALCHLELKHFAEAVNWCDEGLQIDAKEKKLLEMRAKADKLKRIEQRDVRKANLKEKKERNQNEALLQAIKARNIRLSEAACEDEDSASEGLGELFLDGLSTENPHGARLSLDGQGRLSWPVLFLYPEYAQSDFISAFHEDSRFIDHLMVMFGETPSWDLEQKYCPDNLEVYFEDEDRAELYRVPAKSTLLQVLQHQRYFVKALTPAFLVCVGSSPFCKNFLRGRKVYQIR [V42D] | with no effect

Other lines, results leading:

effect of a mutation on the interaction | Variant
decreasing interaction strength | MEQPGQDPTSDDVMDSFLEKFQSQPYRGGFHEDQWEKEFEKVPLFMSRAPSEIDPRENPDLACLQSIIFDEERSPEAQAKTYKDEGNDYFKEKDYKKAVISYTEGLKKKCADPDLNAVLYTNRAAAQYYLGNFRSALNDVTAARKLKPCHLKAIIRGALCHLELKHFAEAVNWCDEGLQIDAKEKKLLEMRAKADKLKRIEQRDVRKANLKEKKERNQNEALLQAIKARNIRLSEAACEDEDSASEGLGELFLDGLSTENPHGARLSLDGQGRLSWPVLFLYPEYAQSDFISAFHEDSRFIDHLMVMFGETPSWDLEQKYCPDNLEVYFEDEDRAELYRVPAKSTLLQVLQHQRYFVKALTPAFLVCVGSSPFCKNFLRGRKVYQIR [E77A]
decreasing interaction strength | MEQPGQDPTSDDVMDSFLEKFQSQPYRGGFHEDQWEKEFEKVPLFMSRAPSEIDPRENPDLACLQSIIFDEERSPEEQAKTYKDEGNDYFKEKDYKKAVISYTEGLKKKCADPDLNAVLYTNRAAAQYYLGNFRSALNDVTAARKLKPCHLKAIIRGALCHLELKHFAEAVNWCDEGLQIDAKEKKLLEMRAKADKLKRIEQRDVRKANLKEKKERKQNEALLQAIKARNIRLSEAACEDEDSASEGLGELFLDGLSTENPHGARLSLDGQGRLSWPVLFLYPEYAQSDFISAFHEDSRFIDHLMVMFGETPSWDLEQKYCPDNLEVYFEDEDRAELYRVPAKSTLLQVLQHQRYFVKALTPAFLVCVGSSPFCKNFLRGRKVYQIR [N217K]

Variants of: B2
Conditions: with hsp7c_human HSPA8, P11142
Chain of hsp7c_human HSPA8, P11142 (P11142 whole entry, looked up): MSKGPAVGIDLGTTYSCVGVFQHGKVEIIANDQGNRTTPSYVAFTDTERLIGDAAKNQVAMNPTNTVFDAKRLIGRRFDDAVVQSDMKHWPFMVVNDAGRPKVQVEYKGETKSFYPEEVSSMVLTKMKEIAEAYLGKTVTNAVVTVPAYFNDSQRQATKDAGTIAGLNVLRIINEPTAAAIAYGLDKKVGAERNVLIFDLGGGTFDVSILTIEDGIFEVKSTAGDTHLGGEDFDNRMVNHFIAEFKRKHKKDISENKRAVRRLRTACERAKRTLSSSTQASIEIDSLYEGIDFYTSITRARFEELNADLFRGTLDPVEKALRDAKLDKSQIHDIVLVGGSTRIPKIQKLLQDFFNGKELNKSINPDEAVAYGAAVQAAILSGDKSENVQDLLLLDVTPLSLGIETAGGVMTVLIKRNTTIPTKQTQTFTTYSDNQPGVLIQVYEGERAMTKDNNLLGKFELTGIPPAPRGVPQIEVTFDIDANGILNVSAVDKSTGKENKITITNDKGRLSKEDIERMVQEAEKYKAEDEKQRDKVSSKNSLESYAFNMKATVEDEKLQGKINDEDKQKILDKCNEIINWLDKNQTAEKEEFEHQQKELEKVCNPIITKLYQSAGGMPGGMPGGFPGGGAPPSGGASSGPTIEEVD

Variant | effect of a mutation on the interaction
MEQPGQDPTSDDVMDSFLEKFQSQPYRGGFHEDQWEKEFEKVPLFMSRAPSEIDPRENPDLACLQSMIFDEERSPEEQAKTYKDEGNDYFKEKDYKKAVISYTEGLKKKCADPDLNAVLYTNRAAAQYYLGNFRSALNDVTAARKLKPCHLKAIIRGALCHLELKHFAEAVNWCDEGLQIDAKEKKLLEMRAKADKLKRIEQRDVRKANLKEKKERNQNEALLQAIKARNIRLSEAACEDEDSASEGLGELFLDGLSTENPHGARLSLDGQGRLSWPVLFLYPEYAQSDFISAFHEDSRFIDHLMVMFGETPSWDLEQKYCPDNLEVYFEDEDRAELYRVPAKSTLLQVLQHQRYFVKALTPAFLVCVGSSPFCKNFLRGRKVYQIR [I67M] | decreasing interaction strength
MEQPGQDPTSDDVMDSFLEKFQSQPYRGGFHEDQWEKEFEKDPLFMSRAPSEIDPRENPDLACLQSIIFDEERSPEEQAKTYKDEGNDYFKEKDYKKAVISYTEGLKKKCADPDLNAVLYTNRAAAQYYLGNFRSALNDVTAARKLKPCHLKAIIRGALCHLELKHFAEAVNWCDEGLQIDAKEKKLLEMRAKADKLKRIEQRDVRKANLKEKKERNQNEALLQAIKARNIRLSEAACEDEDSASEGLGELFLDGLSTENPHGARLSLDGQGRLSWPVLFLYPEYAQSDFISAFHEDSRFIDHLMVMFGETPSWDLEQKYCPDNLEVYFEDEDRAELYRVPAKSTLLQVLQHQRYFVKALTPAFLVCVGSSPFCKNFLRGRKVYQIR [V42D] | decreasing interaction strength

The remaining lines, values ahead:

effect of a mutation on the interaction | Variant
with no effect | MEQPGQDPTSDDVMDSFLEKFQSQPYRGGFHEDQWEKEFEKVPLFMSRAPSEIDPRENPDLACLQSIIFDEERSPEAQAKTYKDEGNDYFKEKDYKKAVISYTEGLKKKCADPDLNAVLYTNRAAAQYYLGNFRSALNDVTAARKLKPCHLKAIIRGALCHLELKHFAEAVNWCDEGLQIDAKEKKLLEMRAKADKLKRIEQRDVRKANLKEKKERNQNEALLQAIKARNIRLSEAACEDEDSASEGLGELFLDGLSTENPHGARLSLDGQGRLSWPVLFLYPEYAQSDFISAFHEDSRFIDHLMVMFGETPSWDLEQKYCPDNLEVYFEDEDRAELYRVPAKSTLLQVLQHQRYFVKALTPAFLVCVGSSPFCKNFLRGRKVYQIR [E77A]
with no effect | MEQPGQDPTSDDVMDSFLEKFQSQPYRGGFHEDQWEKEFEKVPLFMSRAPSEIDPRENPDLACLQSIIFDEERSPEEQAKTYKDEGNDYFKEKDYKKAVISYTEGLKKKCADPDLNAVLYTNRAAAQYYLGNFRSALNDVTAARKLKPCHLKAIIRGALCHLELKHFAEAVNWCDEGLQIDAKEKKLLEMRAKADKLKRIEQRDVRKANLKEKKERKQNEALLQAIKARNIRLSEAACEDEDSASEGLGELFLDGLSTENPHGARLSLDGQGRLSWPVLFLYPEYAQSDFISAFHEDSRFIDHLMVMFGETPSWDLEQKYCPDNLEVYFEDEDRAELYRVPAKSTLLQVLQHQRYFVKALTPAFLVCVGSSPFCKNFLRGRKVYQIR [N217K]

From IntAct's records for PubMed 18320024
